Biological target: VP11-His (pET-28b/VP11-His) (White spot syndrome virus (WSSV-TW strain))
Assay: cross-linking; VP11-His from clear E. coli lysate held on Ni-NTA beads, washed, 0.05% glutaraldehyde in PBS passed through the column, eluted with 250 mM imidazole, SDS-PAGE and anti-His immunoblot

## VP11-His (pET-28b/VP11-His) (natural protein)
  stoichiometry N: 2
